Results from patent publication US20260056186A1 (JIANGSU HENGRUI PHARMACEUTICALS, published 2026).
Like-named read-outs stand apart in the source and are kept apart here.

Experiments:
[1] = biological target: T1, recombinant human APRIL (R&D cat: 5860-AP-010/CF) (human, UniProt O75888 105-250, limits assumed); experiment: cell-based or functional assay
T1 sequence (looked up): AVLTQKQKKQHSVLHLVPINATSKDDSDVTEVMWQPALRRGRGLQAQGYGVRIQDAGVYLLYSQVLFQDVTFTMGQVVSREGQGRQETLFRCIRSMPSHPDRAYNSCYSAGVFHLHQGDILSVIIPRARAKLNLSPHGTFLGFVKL

[2] = biological target: T2, BAFF (PeproTech, Cat: 310-13) (UniProt Q9Y275 134-285); experiment: ELISA, BAFF coated at 1 ug/mL, anti-human Fc-HRP, OD450
Protocol: (§1) The capabilities of TACI-BCMA fusion proteins (B575701, B575702, B575703, and B575704) to bind to BAFF and APRIL were assessed by ELISA as follows: BAFF (PeproTech, Cat: 310-13) or ARPIL (Acro Biosystems, Cat: APL-H52D1) was diluted to 1 μg/mL with PBS, and a 96-well plate (Costar, Cat: 3590) was coated with the dilution overnight at 4° C. The plate was washed with PBST and blocked with Blocking Buffer (PBST containing 1% BSA) at 37° C. for 1 h. The plate was tapped. The test antibodies were diluted with Blocking Buffer. Incubation was performed at 37° C. for 1.5 h. The plate was washed with PBST. An HRP-mouse anti-human Fc antibody (GenScript, Cat: A01854-200) was diluted with Blocking Buffer. Incubation was performed at 37° C. for 40 min. The plate was washed with PBST. 100 μL of TMB substrate solution (Biopanda, Cat: TMB-S-003) was added, and color development was performed at 37° C. for 3 min. 100 μL of ELISA stop solution (Solarbio, Cat: C1058) was added. OD450 was measured.
The capability of B575702 to bind to BAFF was consistent with that of B575704, and their EC₅₀ values decreased to ¼ of that of telitacicept. The capability of B575701 to bind to BAFF was consistent with that of B575703, and their EC₅₀ values decreased to ½ of that of telitacicept.

[3] = biological target: T2, BAFF (PeproTech, Cat: 310-13); experiment: as above; remark: listed apart in the source
Protocol: as §1, with “B613301, B613302, and B613303, which are” for “TACI-BCMA”, “of anifrolumab” for “(B575701, B575702, B575703,”, “TACI-BCMA,” for “B575704)”, “follows: [0548]” for “follows:”

[4] = biological target: T3, APRIL (Acro Biosystems, Cat: APL-H52D1) (UniProt O75888 115-250, limits assumed); experiment: ELISA, APRIL coated at 1 ug/mL, anti-human Fc-HRP, OD450
T3 construct: also called ARPIL
T3 sequence (looked up): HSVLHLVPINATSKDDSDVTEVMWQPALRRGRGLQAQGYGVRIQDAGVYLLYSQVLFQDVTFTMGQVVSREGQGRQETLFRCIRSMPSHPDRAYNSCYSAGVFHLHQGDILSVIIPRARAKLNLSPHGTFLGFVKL
Protocol: as §1, with “B613301, B613302, and B613303, which are” for “TACI-BCMA”, “of anifrolumab” for “(B575701, B575702, B575703,”, “TACI-BCMA,” for “B575704)”, “follows: [0548]” for “follows:”

[5] = biological target: T4, BAFF (Sino biological, 10056-HNCH) (UniProt Q9Y275 134-285, biotinylated in the blocking ELISA (site not stated)); experiment: competition ELISA: fusion protein pre-mixed with biotinylated BAFF, added to coated BAFF-R
T4 construct: also called BLyS
Protocol: The above TACI-Fc fusion proteins' function of blocking the binding of BAFF to BAFF-R was further assessed as follows: The receptor protein was diluted with a pH 7.4 PBS (BasalMedia, B320) buffer to 2 μg/mL, and the resulting dilution was added to a 96-well microplate (Corning, 3590) at 100 μL/well. The plate was incubated overnight at 4° C. After the liquid was discarded, 1% Casein blocking solution (Thermo, 37528) was added at 200 μL/well for blocking, and the plate was incubated at 37° C. for 2 h. After the blocking, the blocking solution was discarded, and the plate was washed 3 times with a PBST buffer (pH 7.4 PBS containing 0.1% tween-20) and set aside for later use. A biotinylated ligand protein at a fixed concentration was mixed with a serially diluted antibody or fusion protein, and the mixture was pre-incubated at 37° C. for 30 min and then added to the blocked microplate. The plate was incubated at 37° C. for 1.5 h. After the incubation, the plate was washed 3 times with PBST, and streptavidin-HRP (Invitrogen, 434323, diluted in a 1:4000 ratio) was added at 100 μL/well. The plate was incubated at 37° C. for 1 h. The supernatant was removed. […] The absorbance at 450 nm was measured using a microplate reader. Curves for the inhibition of the binding of the ligand to the receptor were fitted using software, and IC₅₀ values were calculated. […]

B1: Telitacicept (RCT-18) (Fc fusion)
chain: SRVDQEERFPQGLWTGVAMRSCPEEQYWDPLLGTCMSCKTICNHQSQRTCAAFCRSLSCRKEQGKFYDHLLRDCISCASICGQHPKQCAYFCENKLRSPVNLPPELDKTHTCPPCPAPEAEGAPSVFLFPPKPKDTLMISRTPEVTCVVVDVSHEDPEVKFNWYVDGVEVHNAKTKPREEQYNSTYRVVSVLTVLHQDWLNGKEYKCKVSNKALPSSIEKTISKAKGQPREPQVYTLPPSRDELTKNQVSLTCLVKGFYPSDIAVEWESNGQPENNYKTTPPVLDSDGSFFLYSKLTVDKSRWQQGNVFSCSVMHEALHNHYTQKSLSLSPGK
notes: Positive control TACI-Fc; also called RC18
Question: B1 was tested. Which “Flow cytometry proliferating B cell proportion (%), mean value, APRIL-induced, drug at 4.12 nM (IgG1: 55.30)” value [1] did it give?
Answer: The value was 48.1%.

Question: What about the “Flow cytometry proliferating B cell proportion (%), mean value, APRIL-induced, drug at 12.35 nM (IgG1: 54.80)” value [1] of the same binder?
Answer: Its value is 49.2%.

Question: What about the “Flow cytometry proliferating B cell proportion (%), mean value, APRIL-induced, drug at 37.04 nM (IgG1: 56.63)” value [1] of the same binder?
Answer: The value was 50.1%.

Question: What about the “Flow cytometry proliferating B cell proportion (%), mean value, APRIL-induced, drug at 111.11 nM (IgG1: 55.83)” value [1] of the same binder?
Answer: The value was 50.3%.

Question: And the “Flow cytometry proliferating B cell proportion (%), mean value, APRIL-induced, drug at 333.33 nM (IgG1: 56.27)” value [1]?
Answer: Its value is 49.1%.

Question: What about the “Flow cytometry proliferating B cell proportion (%), mean value, APRIL-induced, drug at 1000.00 nM (IgG1: 53.27)” value [1] of the same binder?
Answer: Its value is 46.3%.

Question: What about the EC50 [2] of the same binder?
Answer: Its EC50 is 0.713 nM.

Question: And the Emax [2]?
Answer: Its Emax is 2.28 nM (as printed).

Question: And the EC50 [3]?
Answer: Its EC50 is 0.801 nM.

Question: What about the EC50 [4] of the same binder?
Answer: Its EC50 is 1.25 nM.

Question: What about the Emax [4] of the same binder?
Answer: Its Emax is 2.5.

Question: What about the IC50 [5] of the same binder?
Answer: The IC50 was 27.5 nM.
